± gives the standard deviation of the averaged measurements.
Test system: ATP
Test: switch fluorescence ratio, 500 uM ATP over buffer (Cy3 cluster intensity, sum of 5 cycles each) (fold (ratio)); higher = stronger signal-on switching upon ATP binding; sequences stand for … in TCGTCGGCAGCGTCAGATGTGTATAAGAGACAGTTTTTTTTTTTTTTTTTTTTTTTTT…TC
Settings: aptamer strand: ATP DNA aptamer (quencher-CACCTGGGGGAGTATTGCGGAGGAAGG + anchor), 100 nM annealed; ATP concentration: 500 uM
Method in brief: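 Cy3-labelled switching-strand clusters on a modified Illumina MiSeq flow-cell were annealed to 100 nM quencher-labelled ATP aptamer and imaged first in selection buffer, then after 15 min with 500 uM ATP at 22 °C. NaOH stripping and re-annealing separated each of five buffer/ATP cycles, and clusters outside 100-1000 RFU were excluded. The fluorescence ratio sums target-cycle Cy3 intensity over buffer-cycle Cy3 intensity per cluster and averages it per switch-domain sequence.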
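Also: ATP exposure 15 min at 22 °C before imaging.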

Sequence	switch fluorescence ratio
GGTGGGGTAG	0.988 ± 0.021
GGTGGGGTGT	0.982 ± 0.05
GGTGGGTAAT	0.983 ± 0.015
GGTGGGTCGT	1.014 ± 0.0095
GGTGGGTTAG	1.02 ± 0.032
GGTGTAGGCG	0.969 ± 0.039
GGTGTATAGT	0.9908 ± 0.0079
GGTGTCGTG	0.98 ± 0.024
GGTGTCTGT	0.9738 ± 0.0044
GGTGTGATGG	0.9512 ± 0.0085
GGTGTGCCGT	0.989 ± 0.1
GGTGTGGGGA	0.994 ± 0.025
GGTGTGTAGA	1.02 ± 0.038
GGTGTGTTAA	0.996 ± 0.042
GGTGTGTTTG	1.01 ± 0.046
GGTGTTAGAG	0.985 ± 0.0036
GGTGTTGAGA	1.01 ± 0.04
GGTGTTGGAG	0.997 ± 0.019
GGTGTTTCAT	0.973 ± 0.053
GGTGTTTTTA	1.07 ± 0.067
GGTTAAACAG	0.982 ± 0.041
GGTTAAATTT	0.987 ± 0.021

Sequence	switch fluorescence ratio
GGTTAACTAG	1.02 ± 0.011
GGTTAACTGG	0.991 ± 0.023
GGTTAAGATG	0.986 ± 0.01
GGTTAAGGTG	1.28 ± 0.071
GGTTAATCGG	0.9983 ± 0.0029
GGTTAATTGG	0.99 ± 0.047
GGTTACCAGA	0.9973 ± 0.0065
GGTTACCGGC	0.977 ± 0.079
GGTTACTGGA	1.02 ± 0.018
GGTTACTTGG	0.9885 ± 0.0097
GGTTAGCTGC	0.991 ± 0.023
GGTTAGGTCG	1.06 ± 0.081
GGTTAGGTGG	0.99 ± 0.044
GGTTATCTTG	1.01 ± 0.019
GGTTATGGCT	0.9973 ± 0.0025
GGTTATTGTG	0.968 ± 0.027
GGTTCAAGGA	0.99 ± 0.063
GGTTCAGCGC	1.03 ± 0.041
GGTTCAGGGT	1.02 ± 0.023
GGTTCATGGT	0.989 ± 0.011
GGTTCATTAG	1.01 ± 0.037
GGTTCCAAAA	1.02 ± 0.029

Sequence	switch fluorescence ratio
GGTTCGAAGT	1.01 ± 0.048
GGTTCGGCTG	0.982 ± 0.012
GGTTCTATAG	0.993 ± 0.02
GGTTCTGGCC	0.996 ± 0.013
GGTTCTTAGG	1.01 ± 0.032
GGTTCTTAGT	0.978 ± 0.05
GGTTCTTATT	1.017 ± 0.0064
GGTTGAAGTA	0.989 ± 0.047
GGTTGAATTG	0.974 ± 0.01
GGTTGAGTG	0.977 ± 0.0033
GGTTGATTGG	0.973 ± 0.014
GGTTGCAAGC	1.05 ± 0.017
GGTTGCCTGC	0.96 ± 0.029
GGTTGCTCGG	0.998 ± 0.026
GGTTGCTGCC	0.9917 ± 0.0029
GGTTGGAATA	0.965 ± 0.044
GGTTGGAATG	1.08 ± 0.18
GGTTGGAGGT	0.971 ± 0.019
GGTTGGGCGA	0.986 ± 0.021
GGTTGGGGGC	0.991 ± 0.025
GGTTGGGGTT	0.942 ± 0.039
GGTTGGGTG	1.03 ± 0.013

Sequence	switch fluorescence ratio
GGTTGGGTTT	0.989 ± 0.03
GGTTGGTACT	1 ± 0.026
GGTTGGTATG	0.987 ± 0.027
GGTTGGTCTT	0.974 ± 0.041
GGTTGTACGA	0.986 ± 0.01
GGTTGTACGT	0.984 ± 0.01
GGTTGTGATA	0.999 ± 0.044
GGTTGTGGGA	0.98 ± 0.053
GGTTGTGGTT	0.998 ± 0.031
GGTTGTGTTA	0.998 ± 0.013
GGTTGTTCGT	1.006 ± 0.0037
GGTTGTTGAG	0.987 ± 0.052
GGTTGTTTGG	0.989 ± 0.02
GGTTGTTTGT	0.995 ± 0.015
GGTTTAAAGT	1.01 ± 0.014
GGTTTAAGCA	0.982 ± 0.034
GGTTTACGGT	1.007 ± 0.0018
GGTTTAGATA	0.987 ± 0.031
GGTTTAGCGG	0.9809 ± 0.0033
